Measured values as given in patent US20120034215A1 (Daiichi Sankyo, published 2012).

B1: MOR07923 (human IgG1) (antibody, V domains shown)
VH: QVQLVESGGGLVQPGGSLRLSCAASGFTFNSYSMSWVRQAPGKGLEWVSYISSRSSTTYYADSVKGRFTISRDNSKNTLYLQMNSLRAEDTAVYYCARGYFHGMDYWGQGTLVTVSS
VL: DIVLTQSPATLSLSPGERATLSCRASQSVSFDYLGWYQQKPGQAPRLLIYGASNRATGVPARFSGSGSGTDFTLTISSLEPEDFATYYCFQYLIVPFTFGQGTKVEIKR
B2: MOR07924 (human IgG1) (antibody, V domains shown)
VH: QVQLVESGGGLVQPGGSLRLSCAASGFTFNSYSMSWVRQAPGKGLEWVSYISSRSSTTYYADSVKGRFTISRDNSKNTLYLQMNSLRAEDTAVYYCARGYFHGMDYWGQGTLVTVSS
VL: DIVLTQSPATLSLSPGERATLSCRASQSVSFDYLGWYQQKPGQAPRLLIYGASNRATGVPARFSGSGSGTDFTLTISSLEPEDFATYYCQQYNINPFTFGQGTKVEIKR
B3: MOR07926 (human IgG1) (antibody, V domains shown)
VH: QVQLVESGGGLVQPGGSLRLSCAASGFTFNSYSMSWVRQAPGKGLEWVSYISSRSSTTYYADSVKGRFTISRDNSKNTLYLQMNSLRAEDTAVYYCARGYFHGMDYWGQGTLVTVSS
VL: DIVLTQSPATLSLSPGERATLSCRASQSVSFDYLGWYQQKPGQAPRLLIYGASNRATGVPARFSGSGSGTDFTLTISSLEPEDFATYYCFQALIMPFTFGQGTKVEIKR
B4: MOR07692 (human IgG1) (antibody, V domains shown)
VH: QVQLVESGGGLVQPGGSLRLSCAASGFTFNSYSMSWVRQAPGKGLEWVSYISSRSSTTYYADSVKGRFTISRDNSKNTLYLQMNSLRAEDTAVYYCARGYFHGMDYWGQGTLVTVSS
VL: DIVLTQSPATLSLSPGERATLSCRASQSVSFDYLGWYQQKPGQAPRLLIYGASNRATGVPARFSGSGSGTDFTLTISSLEPEDFATYYCQQYYNMPYTFGQGTKVEIKR
B5: MOR07925 (human IgG1) (antibody, V domains shown)
VH: QVQLVESGGGLVQPGGSLRLSCAASGFTFNSYSMSWVRQAPGKGLEWVSYISSRSSTTYYADSVKGRFTISRDNSKNTLYLQMNSLRAEDTAVYYCARGYFHGMDYWGQGTLVTVSS
VL: DIVLTQSPATLSLSPGERATLSCRASQSVSFDYLGWYQQKPGQAPRLLIYGASNRATGVPARFSGSGSGTDFTLTISSLEPEDFATYYCLQYFNPPHTFGQGTKVEIKR

Target: T1, cynomolgus monkey MST1R with N-terminal Flag tag, expressed on HEK293T cells (cynomolgus monkey, UniProt Q04912 27-1400 (human entry))
T1 construct: ORF cloned excluding the signal peptide region; also called cynomolgus MST1R; not shown: N-terminal Flag tag from vector pFLAG-myc-CMV-19 (Sigma)
T1 chain: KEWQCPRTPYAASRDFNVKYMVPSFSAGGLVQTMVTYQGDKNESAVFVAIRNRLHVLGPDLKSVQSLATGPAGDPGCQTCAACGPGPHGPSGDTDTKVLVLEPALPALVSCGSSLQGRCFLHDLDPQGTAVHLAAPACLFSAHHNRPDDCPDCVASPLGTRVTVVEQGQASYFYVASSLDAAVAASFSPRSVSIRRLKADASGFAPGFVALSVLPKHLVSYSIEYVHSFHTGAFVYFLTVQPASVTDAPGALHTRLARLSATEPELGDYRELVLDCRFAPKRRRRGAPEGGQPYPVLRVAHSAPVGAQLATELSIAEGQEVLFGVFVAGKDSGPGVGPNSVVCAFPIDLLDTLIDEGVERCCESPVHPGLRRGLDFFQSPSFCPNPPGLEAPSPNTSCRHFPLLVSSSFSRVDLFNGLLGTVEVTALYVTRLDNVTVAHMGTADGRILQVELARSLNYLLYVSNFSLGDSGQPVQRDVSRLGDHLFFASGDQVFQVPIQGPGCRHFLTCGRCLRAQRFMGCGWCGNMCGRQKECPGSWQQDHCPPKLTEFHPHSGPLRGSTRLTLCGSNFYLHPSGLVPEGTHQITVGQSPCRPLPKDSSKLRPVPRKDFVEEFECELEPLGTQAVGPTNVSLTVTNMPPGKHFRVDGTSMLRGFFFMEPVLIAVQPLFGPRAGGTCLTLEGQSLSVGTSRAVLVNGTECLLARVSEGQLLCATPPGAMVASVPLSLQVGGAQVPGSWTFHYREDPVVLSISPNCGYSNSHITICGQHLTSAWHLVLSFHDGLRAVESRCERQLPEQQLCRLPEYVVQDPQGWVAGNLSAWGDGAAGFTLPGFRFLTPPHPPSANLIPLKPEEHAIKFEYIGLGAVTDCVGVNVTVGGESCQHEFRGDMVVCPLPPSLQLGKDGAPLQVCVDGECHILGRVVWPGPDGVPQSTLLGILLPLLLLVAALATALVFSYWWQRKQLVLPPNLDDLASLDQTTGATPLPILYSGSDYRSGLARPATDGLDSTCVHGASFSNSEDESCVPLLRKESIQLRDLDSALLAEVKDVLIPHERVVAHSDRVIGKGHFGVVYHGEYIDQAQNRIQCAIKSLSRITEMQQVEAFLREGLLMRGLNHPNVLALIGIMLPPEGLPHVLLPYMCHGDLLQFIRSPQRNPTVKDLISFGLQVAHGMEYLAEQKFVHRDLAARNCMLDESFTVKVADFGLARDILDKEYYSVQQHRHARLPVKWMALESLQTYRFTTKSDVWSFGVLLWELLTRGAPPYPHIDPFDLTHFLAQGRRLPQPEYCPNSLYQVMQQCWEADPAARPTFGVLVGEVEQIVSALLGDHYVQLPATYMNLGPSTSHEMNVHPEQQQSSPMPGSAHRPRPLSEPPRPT
Test: flow cytometry on transfected HEK293T cells, 2 ug/ml IgG1
Experimental: Cells (5×10⁵ cells/well) were incubated with Fab or IgG antibodies at the indicated concentrations in 50 μl FACS buffer (PBS, 5% FCS) for 60 min at 4° C. in round bottom 96-well culture plates (Corning). Cells were washed twice and then incubated with Fluorescein Isothiocyanate (FITC) conjugated detection antibody for 30 min at 4° C. Cells were washed again, resuspended in 0.3 ml FACS buffer and then analyzed by flow cytometry in a Cytomics FC500 (Beckman Coulter, Inc.). Data were analysed via FlowJo software (Tomy digital biology Co., Ltd.). Polyclonal goat anti-hMSP R IgG (R&D systems) or anti-FLAG M2 antibody (Sigma) was used as a positive control and MOR03207 (anti-lysozyme) antibody was used as a negative control.
FACS-analysis of MST1R ortholog-expressing cells: Human MST1R (cDNA nucleotide sequence is shown as GenBank Accession No: NM_{—}002447.2), cynomolgus monkey MST1R and mouse MST1R (cDNA nucleotide sequence is shown as GeneBank Accession No: NM_{—}009074.1) expression vector containing N-terminal Flag tag (pFLAG-myc-CMV-19, Sigma) were constructed. cDNA encoding cynomolgus monkey MST1R was amplified by PCR using cynomolgus monkey stomach cDNA as a template with forward and reverse primers having nucleotide sequences of SEQ ID NO: 34 and 35, respectively. By sequencing analysis of PCR product, the cynomolgus MST1R ORF nucleotide sequence was identified as shown in SEQ ID NO: 36. The corresponding amino acid sequence was shown in SEQ ID NO: 37. Then human, cynomolgus monkey and mouse MST1R ORF cDNA, excluding signal peptide regions, were amplified using respective forward and reverse primers having nucleotide sequences of SEQ ID NO: 38 and 39 (human), 40 and 41 (cynomolgus monkey), and 42 and 43 (mouse) with appropriate cloning sites and then cloned into pFLAG-myc-CMV-19. An amplified human MST1R fragment encodes amino acids corresponding to GenBank Accession No: NP_{—}002438.2 (SEQ ID NO: 45). A Mouse MST1R fragment encodes amino acids corresponding to GenBank Accession No: NP_{—}033100.1 (SEQ ID NO: 47) except for those amino acid differences at positions: 688 (Leu to Pro), 713 (Ile to Val), 714 (Ala to Gly) and 719 (Ala to Val). These expression vectors were transfected into HEK293T cells. For FACS-analysis, cells were incubated with 2 μg/ml primary antibodies followed by incubation with FITC-labeled secondary antibody as described above.

Binding result, binds:
B1
B2
B3
B4
B5
